The target of experiment [1] is Gal4p (yeast (Saccharomyces cerevisiae), UniProt P04386). The experiment in a line: cell-based or functional assay.
For experiment [2], the target named is Gal4p-PSD fusion protein (yeast (Saccharomyces cerevisiae); Arabidopsis thaliana) (UniProt P04386).

B1: Gal80p (other)
chain: MDYNKRSSVSTVPNAAPIRVGFVGLNAAKGWAIKTHYPAILQLSSQFQITALYSPKIETSIATIQRLKLSNATAFPTLESFASSSTIDMIVIAIQVASHYEVVMPLLEFSKNNPNLKYLFVEWALACSLDQAESIYKAAAERGVQTIISLQGRKSPYILRAKELISQGYIGDINSIEIAGNGGWYGYERPVKSPKYIYEIGNGVDLVTTTFGHTIDILQYMTSSYFSRINAMVFNNIPEQELIDERGNRLGQRVPKTVPDHLLFQGTLLNGNVPVSCSFKGGKPTKKFTKNLVIDIHGTKGDLKLEGDAGFAEISNLVLYYSGTRANDFPLANGQQAPLDPGYDAGKEIMEVYHLRNYNAIVGNIHRLYQSISDFHFNTKKIPELPSQFVMQGFDFEGFPTLMDALILHRLIESVYKSNMMGSTLNVSNISHYSL
Regarding B1, the “GFP expression from PGAL1-GFP reporter (GFP/OD600), blue light (GAL80 expressed) against dark, strain YEZ100 (OptoINVRT1, gal4 gal80 deleted background)” value in experiment [1] is 45.7 fold decrease. For the same molecule, in experiment [2], the GFP expression from PGAL1-GFP reporter (GFP/OD600), blue light against dark, strain YEZ102 (OptoINVRT3) came to 70 fold.

The values are drawn from patent publication US20190119331A1, “SYSTEM AND METHOD OF OPTOGENETICALLY CONTROLLING METABOLIC PATHWAYS FOR THE PRODUCTION OF CHEMICALS” (The Trustees of Princeton University, published 2019).
